The text below walks through data of article PMC4186968, “Molecular Basis for Coordinating Transcription Termination with Noncoding RNA Degradation” (Molecular Cell, 2014).

Positions count from the first letter of the chain named. Names and notes keep the numbering of the source. Where a SMILES comes first, the peptide text is derived from it. Where no end group is shown, it is not given here.

B1: Nrd1p CID (residues 1-153), P53617 L20D (protein)
chain: MQQDDDFQNFVATLESFKDDKSGISGSRIKKLTTYALDHIDIESKIISLIIDYSRLCPDSHKLGSLYIIDSIGRAYLDETRSNSNSSSNKPGTCAHAINTLGEVIQELLSDAIAKSNQDHKEKIRMLLDIWDRSGLFQKSYLNAIRSKCFAMD
B2: Nrd1p CID Ile130Lys (domain or fragment)
chain: B1 chain with D20L, I130K
B3: Nrd1p CID (residues 1-153), P53617 D70A (protein)
chain: B1 chain with D20L, D70A
B4: Nrd1p CID (residues 1-153), P53617 I130K (protein)
chain: B1 chain with D20L, I130K
B5: Nrd1p CID (residues 1-153) (domain or fragment)
chain: B1 chain with D20L
B6: Nrd1p CID (residues 1-153), P53617 R28D (protein)
chain: B1 chain with D20L, R28D
B7: 12 aa NIM peptide of Trf4p (peptide)
peptide: DDDEDGYNPYTL
notes: printed in three-letter code; also called Trf4p NIM; unlabeled NIM

One assay addresses T1, Nrd1p CID (Saccharomyces cerevisiae, UniProt P53617).
T1 construct: the CID (residues 1–153) of Nrd1p; His6 (C); made in house
T1 sequence (P53617 1-153): B1 chain with D20L
As to the kind of experiment: Equilibrium binding of FAM-labelled peptides to Nrd1p CID by fluorescence anisotropy (FA). More on the design: species or system S. cerevisiae.

The target of assay [1] is Nrd1p CID (residues 1-153) (UniProt P53617). The experiment in a line: fluorescence anisotropy (FA) equilibrium binding.
Assay [2] has as its target T2, Nrd1p CID (residues 1-153), P53617.
T2 chain: B1 chain with D20L
The experiment in a line: fluorescence anisotropy (FA) equilibrium binding. The following applies: chain shown with the change.

Assay [3] addresses T3, FAM-labeled Trf4p NIM peptide.
T3 chain: DDDEDGYNPYTL
The experiment in a line: fluorescence anisotropy (FA) equilibrium binding. To be noted: chain shown with the change.

In assay [4] the target is FAM-labeled Trf4p NIM peptide (S. cerevisiae). The experiment in a line: fluorescence polarisation; fluorescence anisotropy; fluorescently labeled peptide titrated with Nrd1p CID; equilibrium binding in solution.
For the next assay, the target named is T4, NIM N580A (Saccharomyces cerevisiae, not fully specified (N-terminus); also: FAM label (position not given here)).
T4 chain: DDDEDGYAPYTL
The experiment in a line: FP.

The next assay addresses T5, NIM D577R (Saccharomyces cerevisiae, not fully specified (N-terminus); also: FAM label (position not given here)).
T5 chain: DDDERGYNPYTL
As to the kind of experiment: FP.

For assay [5], the target named is FAM-labeled Ser5P CTD peptide (S. cerevisiae). As to the kind of experiment: fluorescence polarisation; fluorescence anisotropy; fluorescently labeled peptide titrated with Nrd1p CID; equilibrium binding in solution.
For assay [6] the target is unchanged. As to the kind of experiment: fluorescence polarisation; fluorescence anisotropy competition; preformed complex of 10 nM FAM-labeled Ser5P CTD and Nrd1p CID (120 μM) titrated with unlabeled Trf4p NIM peptide; KD calculated using 1.08 μM for CID-NIM.
Assay [7] has as its target B5. The experiment in a line: FP.
The target of assay [8] is T6, FAM-labeled Trf4p NIM peptide.
T6 chain: B1 chain with D20L, S25R
As to the kind of experiment: fluorescence anisotropy (FA) equilibrium binding. To be noted: chain shown with the change.

Assay [9] addresses T7, FAM-labeled Trf4p NIM peptide.
T7 chain: B1 chain with D20L, K21D
The experiment in a line: fluorescence anisotropy (FA) equilibrium binding. The following applies: chain shown with the change.

Assay [10] has as its target T8, Nrd1p CID (residues 1-153) (S. cerevisiae, UniProt P53617 1-153).
T8 construct: also called Nrd1 CID
T8 sequence (looked up): B1 chain with D20L
The experiment in a line: NMR solution structure; reconstituted complex of 15N,13C-labeled Nrd1p CID and unlabeled NIM peptide; 50 mM sodium phosphate pH 8.0, 100 mM NaCl, 20°C. To be noted: both partners purified.

With `CC(C)C[C@H](NC(=O)[C@@H](NC(=O)[C@H](Cc1ccc(O)cc1)NC(=O)[C@@H]1CCCN1C(=O)[C@H](CC(N)=O)NC(=O)[C@H](Cc1ccc(O)cc1)NC(=O)CNC(=O)[C@H](CC(=O)O)NC(=O)[C@H](CCC(=O)O)NC(=O)[C@H](CCCNC(=N)N)NC(=O)[C@H](CC(=O)O)NC(=O)[C@H](CC(=O)O)NC(=O)c1ccc2c(c1)C(=O)OC21c2ccc(O)cc2Oc2cc(O)ccc21)[C@@H](C)O)C(=O)O` [D575R] (HELM PEPTIDE1{[O=C1OC2(c3ccc(O)cc3Oc3cc(O)ccc32)c2ccc(C(=O)[*:2])cc21].D.D.R.E.D.G.Y.N.P.Y.T.L}$$$$V2.0), the Kd on Nrd1p CID was found to be 7.7 ± 0.2 µM.
In turn, `CC(C)C[C@H](NC(=O)[C@@H](NC(=O)[C@H](Cc1ccc(O)cc1)NC(=O)[C@@H]1CCCN1C(=O)[C@H](C)NC(=O)[C@H](Cc1ccc(O)cc1)NC(=O)CNC(=O)[C@H](CC(=O)O)NC(=O)[C@H](CCC(=O)O)NC(=O)[C@H](CC(=O)O)NC(=O)[C@H](CC(=O)O)NC(=O)[C@H](CC(=O)O)NC(=O)c1ccc2c(c1)C(=O)OC21c2ccc(O)cc2Oc2cc(O)ccc21)[C@@H](C)O)C(=O)O` [N580A] (HELM PEPTIDE1{[O=C1OC2(c3ccc(O)cc3Oc3cc(O)ccc32)c2ccc(C(=O)[*:2])cc21].D.D.D.E.D.G.Y.A.P.Y.T.L}$$$$V2.0) gave a Kd on Nrd1p CID of 4.3 ± 0.1 µM.
On the same count and under the same terms, next, `CC(C)C[C@H](NC(=O)[C@@H](NC(=O)[C@H](Cc1ccc(O)cc1)NC(=O)[C@@H]1CCCN1C(=O)[C@H](CC(N)=O)NC(=O)[C@H](Cc1ccc(O)cc1)NC(=O)CNC(=O)[C@H](CCCNC(=N)N)NC(=O)[C@H](CCC(=O)O)NC(=O)[C@H](CC(=O)O)NC(=O)[C@H](CC(=O)O)NC(=O)[C@H](CC(=O)O)NC(=O)c1ccc2c(c1)C(=O)OC21c2ccc(O)cc2Oc2cc(O)ccc21)[C@@H](C)O)C(=O)O` [D577R] (HELM PEPTIDE1{[O=C1OC2(c3ccc(O)cc3Oc3cc(O)ccc32)c2ccc(C(=O)[*:2])cc21].D.D.D.E.R.G.Y.N.P.Y.T.L}$$$$V2.0): 24.2 ± 0.6 µM.
FAM-labeled Trf4p NIM peptide Y579A showed a Kd in assay [1] of 283 µM.
Consider `CC(C)C[C@H](NC(=O)[C@@H](NC(=O)[C@H](Cc1ccc(O)cc1)NC(=O)[C@@H]1CCCN1C(=O)[C@H](CC(N)=O)NC(=O)[C@H](Cc1ccc(O)cc1)NC(=O)CNC(=O)[C@H](CC(=O)O)NC(=O)[C@H](CCC(=O)O)NC(=O)[C@H](CC(=O)O)NC(=O)[C@H](CC(=O)O)NC(=O)[C@H](CC(=O)O)NC(=O)c1ccc2c(c1)C(=O)OC21c2ccc(O)cc2Oc2cc(O)ccc21)[C@@H](C)O)C(=O)O` [Trf4p NIM] (HELM PEPTIDE1{[O=C1OC2(c3ccc(O)cc3Oc3cc(O)ccc32)c2ccc(C(=O)[*:2])cc21].D.D.D.E.D.G.Y.N.P.Y.T.L}$$$$V2.0; C-terminus assumed), for which, at Nrd1p CID, the dissociation constant (Kd) worked out at 1.09 ± 0.01 µM.
In turn, DDDRDGYNPYTL [FAM-labeled Trf4p NIM peptide E576R] displayed a Kd in assay [2] of 4.8 µM.
DDDADGYNPYTL [FAM-labeled Trf4p NIM peptide E576A] returned a Kd in assay [2] of 3.2 µM.
Consider B1, for which, in assay [3], the Kd is 44.9 µM.
For B2, in [4], the fold decrease in binding affinity against wild-type Nrd1p CID was 20 fold.
In assay [3], B3 returned a dissociation constant (Kd) of 39.8 µM.
On to B4, for which the Kd in assay [3] was 20.7 µM.
For the molecule B5, the Kd is 4.3 µM with NIM N580A; 24.2 µM in the assay with NIM D577R; 130 µM in assay [5]; 1.08 µM in [4]; 120 µM in assay [6].
B6: the dissociation constant (Kd) in assay [3] amounted to 96.9 µM.
In assay [7], DDDRDGYNPYTL [Trf4p NIM peptide with Glu576 changed to arginine] returned a dissociation constant Kd of 4.6 µM.
Same read-out and setting: for DDDEDGANPYTL (not fully specified (N-terminus); also: FAM label (position not given here)) [Trf4p NIM peptide with alanine at Tyr579] the value was 263 µM.
In assay [8], DDDEDGYNPYTL [Nrd1p CID (residues 1-153), P53617 S25R] had a Kd of 146 µM.
In assay [9], DDDEDGYNPYTL [Nrd1p CID (residues 1-153), P53617 K21D] registered a dissociation constant (Kd) of 35.4 µM.
Take B7: the binding result in assay [10] is on record as “binds”.
